Target: T1, insulin receptor (Mus musculus, UniProt P15208)
T1 construct: endogenous in cells; host or cells: 3T3-L1 adipocytes (membrane fraction solubilized with lithium diiodosalicylate / 0.1% Triton X-100)
Experiment: Scatchard analysis of 125I-insulin binding to solubilized receptor preparation from 3T3L1 adipocytes
Details: insulin alone
Experimental: Radiolabeled insulin binding to solubilized receptor preparations. Control and FFA treated 3T3L1 adipocytes were first washed thrice with 0.02M Phosphate Buffer (pH-7.4) containing 0.14M NaCl and then resuspended in Lysis Buffer (20 mM Tris-HCl, 40 mM NaCl, 5 mM EDTA, 5 mM Iodoacetamide, pH-8.4) supplemented with protease inhibitors (1 μg/ml aprotinin, 1 μg/ml pepstatin, 1 μg/ml leupeptin, 2 mM phenyl methyl sulfonyl fluoride and 1 μg/ml trypsin inhibitor). These cells were then freeze thawed thrice at −70° C. and centrifuged at 10,000 rpm for 15 min at 4° C. The pellet collected was resuspended in Lysis Buffer, sonicated and again centrifuged at 10,000 rpm for 15–20 min at 4° C. The supernatant was dialysed overnight against 10 mM Tris-HCl (pH-7.4) buffer and volume reduced by lyophilisation. […]
Scatchard Analysis. […] After the termination of the incubations, free and bound radioactivity was separated by the addition of 500 μl of 0.5% chilled polyethylene glycol (PEG; MW 6000). […] The radioactivity in the final pellet was measured in a ^125I-gamma counter. The specific binding was calculated by subtracting non-specific binding from total binding. Data were then analyzed by Scatchard analysis to determine the affinity and capacity of insulin receptor binding in the presence or absence of palmitic acid (see FIG. 1b).

T1 sequence (P15208 28-748 limits assumed): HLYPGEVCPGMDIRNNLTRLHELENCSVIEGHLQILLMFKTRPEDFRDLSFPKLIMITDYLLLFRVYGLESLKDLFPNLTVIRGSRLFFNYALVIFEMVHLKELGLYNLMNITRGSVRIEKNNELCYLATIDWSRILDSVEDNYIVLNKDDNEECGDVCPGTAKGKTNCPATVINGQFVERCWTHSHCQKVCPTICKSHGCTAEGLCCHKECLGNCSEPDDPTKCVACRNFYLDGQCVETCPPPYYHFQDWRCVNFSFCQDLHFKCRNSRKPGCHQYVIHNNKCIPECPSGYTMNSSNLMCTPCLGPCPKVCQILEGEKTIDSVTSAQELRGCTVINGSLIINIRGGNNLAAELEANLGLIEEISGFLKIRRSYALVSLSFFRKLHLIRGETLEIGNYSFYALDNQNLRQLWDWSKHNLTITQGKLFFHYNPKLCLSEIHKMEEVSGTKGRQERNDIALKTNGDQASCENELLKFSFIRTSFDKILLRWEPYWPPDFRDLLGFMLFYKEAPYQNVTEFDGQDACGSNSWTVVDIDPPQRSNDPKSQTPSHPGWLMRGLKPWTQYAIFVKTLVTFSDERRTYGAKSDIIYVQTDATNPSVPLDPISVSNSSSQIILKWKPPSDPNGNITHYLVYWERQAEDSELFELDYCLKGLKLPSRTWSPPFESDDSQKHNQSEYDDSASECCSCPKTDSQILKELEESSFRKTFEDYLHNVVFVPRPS
T1 sequence (P15208 753-1372 partner limits assumed): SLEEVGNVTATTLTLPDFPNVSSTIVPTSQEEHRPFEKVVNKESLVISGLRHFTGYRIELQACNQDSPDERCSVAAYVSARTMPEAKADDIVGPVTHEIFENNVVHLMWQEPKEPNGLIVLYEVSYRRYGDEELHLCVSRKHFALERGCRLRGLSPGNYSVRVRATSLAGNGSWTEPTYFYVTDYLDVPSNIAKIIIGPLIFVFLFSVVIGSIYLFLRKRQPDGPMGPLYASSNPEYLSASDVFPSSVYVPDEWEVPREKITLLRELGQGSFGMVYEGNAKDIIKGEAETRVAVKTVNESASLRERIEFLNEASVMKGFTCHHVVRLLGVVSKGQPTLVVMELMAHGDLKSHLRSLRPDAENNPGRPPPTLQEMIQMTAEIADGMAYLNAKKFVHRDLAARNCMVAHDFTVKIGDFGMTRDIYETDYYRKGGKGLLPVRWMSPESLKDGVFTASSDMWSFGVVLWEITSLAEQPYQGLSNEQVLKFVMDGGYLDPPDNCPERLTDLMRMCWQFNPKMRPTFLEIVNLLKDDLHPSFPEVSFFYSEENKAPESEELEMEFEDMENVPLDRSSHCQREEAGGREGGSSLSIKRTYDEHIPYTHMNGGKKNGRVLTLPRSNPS

Ka of insulin binding to solubilized receptor: 1.6e+09 M⁻¹
Substance: insulin: recombinant human insulin, radiolabelled with 125I for binding

From patent US7276258B2, “Herbal extract and compound lupinoside and its analogues as anti-diabetic type II drugs from plant Pueraria tuberosa” (Council of Scientific & Industrial Research, priority 2004, dated 2007)
